Test results as given in article PMC9482650, “Quantitative fragmentomics allow affinity mapping of interactomes” (Nature Communications, 2022).

T1: APBA1_1, Q02410
T1 sequence (Q02410 651-752, limits assumed, looked up): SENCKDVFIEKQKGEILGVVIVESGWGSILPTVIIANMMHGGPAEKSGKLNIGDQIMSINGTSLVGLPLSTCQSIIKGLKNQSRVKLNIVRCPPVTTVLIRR

T2: APBA2_2, Q99767
T2 sequence (Q99767 654-744, limits assumed, looked up): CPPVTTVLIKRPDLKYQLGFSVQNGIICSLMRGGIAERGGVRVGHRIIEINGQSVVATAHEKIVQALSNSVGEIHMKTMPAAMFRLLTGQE

T3: APBA3_1, O96018
T3 sequence (O96018 389-490, limits assumed, looked up): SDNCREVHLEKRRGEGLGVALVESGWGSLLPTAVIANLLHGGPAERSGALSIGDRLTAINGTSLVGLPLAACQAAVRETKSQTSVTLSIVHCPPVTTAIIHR

T4: DFNB31_3, Q9P202
T4 sequence (Q9P202 811-907, limits assumed, looked up): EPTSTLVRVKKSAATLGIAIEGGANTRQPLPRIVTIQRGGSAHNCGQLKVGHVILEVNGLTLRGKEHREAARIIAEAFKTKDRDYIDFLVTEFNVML

T5: DVL3, Q92997
T5 sequence (Q92997 244-331, limits assumed, looked up): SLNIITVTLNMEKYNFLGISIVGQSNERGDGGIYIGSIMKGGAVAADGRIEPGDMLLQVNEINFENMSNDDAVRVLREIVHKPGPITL

T6: HTRA4, P83105
T6 sequence (P83105 378-476, limits assumed, looked up): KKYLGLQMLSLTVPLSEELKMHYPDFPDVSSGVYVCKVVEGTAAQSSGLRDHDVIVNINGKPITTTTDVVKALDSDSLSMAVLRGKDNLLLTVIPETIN

T7: LIN7B, Q9HAP6
T7 sequence (Q9HAP6 88-185, limits assumed, looked up): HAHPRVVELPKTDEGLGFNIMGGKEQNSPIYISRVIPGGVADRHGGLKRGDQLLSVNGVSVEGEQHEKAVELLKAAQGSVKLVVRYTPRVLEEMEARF

T8: NHERF3_4, Q5T2W1
T8 sequence (Q5T2W1 373-468, limits assumed, looked up): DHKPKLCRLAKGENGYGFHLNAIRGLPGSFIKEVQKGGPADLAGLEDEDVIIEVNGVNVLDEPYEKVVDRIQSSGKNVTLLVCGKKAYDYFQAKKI

T9: PDZD7_3, Q9H5P4
T9 sequence (Q9H5P4 857-944, limits assumed, looked up): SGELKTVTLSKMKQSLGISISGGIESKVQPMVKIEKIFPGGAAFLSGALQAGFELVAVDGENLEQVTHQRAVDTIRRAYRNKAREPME

T10: SIPA1L2, Q9P2F8
T10 sequence (Q9P2F8 945-1036, limits assumed, looked up): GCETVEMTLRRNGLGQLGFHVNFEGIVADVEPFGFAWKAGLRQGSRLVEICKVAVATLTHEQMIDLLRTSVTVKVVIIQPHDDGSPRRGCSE

T11: SYNJ2BP, P57105
T11 sequence (P57105 8-110, limits assumed, looked up): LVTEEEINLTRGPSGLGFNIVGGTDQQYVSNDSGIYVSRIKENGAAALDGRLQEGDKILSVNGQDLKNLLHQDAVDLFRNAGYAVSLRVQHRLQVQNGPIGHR

T12: APBA2_1, Q99767
T12 sequence (Q99767 563-664, limits assumed, looked up): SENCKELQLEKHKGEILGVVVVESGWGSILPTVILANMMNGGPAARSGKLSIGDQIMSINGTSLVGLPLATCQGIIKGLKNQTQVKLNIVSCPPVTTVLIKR

T13: MPDZ_10, O75970
T13 sequence (O75970 1624-1722, limits assumed, looked up): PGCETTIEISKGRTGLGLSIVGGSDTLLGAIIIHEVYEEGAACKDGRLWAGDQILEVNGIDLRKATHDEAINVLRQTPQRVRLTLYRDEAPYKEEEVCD


Experiments:
Assay in all cases: holdup assay
Set-up in all cases: key: below the threshold = too weak to quantify, mostly under pKd 3.1 to 4
Details in all cases: plain residues with an end cap or a label only (N-terminal biotin on a linker: ado-ado)
APBA1_1, Q02410 = biological target: T1, APBA1_1, Q02410
APBA2_2, Q99767 = biological target: T2, APBA2_2, Q99767
APBA3_1, O96018 = biological target: T3, APBA3_1, O96018
DFNB31_3, Q9P202 = biological target: T4, DFNB31_3, Q9P202
DVL3, Q92997 = biological target: T5, DVL3, Q92997
FRMPD4, Q14CM0 = biological target: FRMPD4, Q14CM0
GRASP, Q7Z6J2 = biological target: GRASP, Q7Z6J2
GRIP2_3, Q9C0E4 = biological target: GRIP2_3, Q9C0E4
GRIP2_7, Q9C0E4 = biological target: GRIP2_7, Q9C0E4
HTRA4, P83105 = biological target: T6, HTRA4, P83105
Inadl_2, Q8NI35 = biological target: Inadl_2, Q8NI35
LIN7B, Q9HAP6 = biological target: T7, LIN7B, Q9HAP6
NHERF3_4, Q5T2W1 = biological target: T8, NHERF3_4, Q5T2W1
PDLIM1, O00151 = biological target: PDLIM1, O00151
PDZD7_3, Q9H5P4 = biological target: T9, PDZD7_3, Q9H5P4
SIPA1L2, Q9P2F8 = biological target: T10, SIPA1L2, Q9P2F8
SYNJ2BP, P57105 = biological target: T11, SYNJ2BP, P57105
TJP2_1, Q9UDY2 = biological target: TJP2_1, Q9UDY2
APBA2_1, Q99767 = biological target: T12, APBA2_1, Q99767
MAGI3_2, Q5TCQ9 = biological target: MAGI3_2, Q5TCQ9
MAST2, Q6P0Q8 = biological target: MAST2, Q6P0Q8
MPDZ_10, O75970 = biological target: T13, MPDZ_10, O75970
SNX27, Q96L92 = biological target: SNX27, Q96L92
MAGI2_4, Q86UL8 = biological target: MAGI2_4, Q86UL8
MAGI2_4, Q86UL8, sequence (Q86UL8 772-865): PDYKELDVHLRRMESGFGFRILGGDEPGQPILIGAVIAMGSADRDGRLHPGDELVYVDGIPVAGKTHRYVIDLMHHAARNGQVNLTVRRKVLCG

TJP2_1, Q9UDY2, sequence (Q9UDY2 24-128): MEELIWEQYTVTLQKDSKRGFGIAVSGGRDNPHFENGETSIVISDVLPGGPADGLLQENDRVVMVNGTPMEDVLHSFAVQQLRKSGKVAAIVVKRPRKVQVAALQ
PDLIM1, O00151, sequence (O00151 1-87): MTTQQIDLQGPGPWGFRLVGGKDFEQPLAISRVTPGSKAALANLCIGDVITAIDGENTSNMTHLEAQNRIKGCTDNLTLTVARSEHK
Inadl_2, Q8NI35, sequence (Q8NI35 238-335): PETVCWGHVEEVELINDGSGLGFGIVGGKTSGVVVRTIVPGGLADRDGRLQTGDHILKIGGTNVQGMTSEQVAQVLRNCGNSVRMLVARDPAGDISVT
GRASP, Q7Z6J2, sequence (Q7Z6J2 96-193): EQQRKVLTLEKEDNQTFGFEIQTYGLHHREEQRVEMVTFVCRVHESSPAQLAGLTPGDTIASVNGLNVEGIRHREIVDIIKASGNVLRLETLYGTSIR
GRIP2_3, Q9C0E4, sequence (Q9C0E4 238-339): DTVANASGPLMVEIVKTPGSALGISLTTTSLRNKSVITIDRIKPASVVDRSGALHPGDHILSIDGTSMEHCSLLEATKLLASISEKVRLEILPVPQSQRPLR
GRIP2_7, Q9C0E4, sequence (Q9C0E4 934-1023): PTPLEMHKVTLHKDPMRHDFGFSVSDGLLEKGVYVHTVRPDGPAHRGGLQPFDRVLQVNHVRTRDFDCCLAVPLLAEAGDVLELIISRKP
FRMPD4, Q14CM0, sequence (Q14CM0 67-160): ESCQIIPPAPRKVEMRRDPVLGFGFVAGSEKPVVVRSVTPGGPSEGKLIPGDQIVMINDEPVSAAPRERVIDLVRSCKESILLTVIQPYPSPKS
MAGI3_2, Q5TCQ9, sequence (Q5TCQ9 398-503): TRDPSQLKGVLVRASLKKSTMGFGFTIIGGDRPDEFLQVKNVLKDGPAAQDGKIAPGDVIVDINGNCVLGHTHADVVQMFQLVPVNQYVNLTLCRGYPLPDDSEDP
MAST2, Q6P0Q8, sequence (Q6P0Q8 1099-1202): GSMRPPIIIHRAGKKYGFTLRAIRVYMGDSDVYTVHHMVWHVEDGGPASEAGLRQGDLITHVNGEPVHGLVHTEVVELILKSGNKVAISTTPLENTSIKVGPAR

pKd (APBA1_1, Q02410) | pKd (APBA2_2, Q99767) | pKd (APBA3_1, O96018) | pKd (DFNB31_3, Q9P202) | pKd (DVL3, Q92997) | pKd (FRMPD4, Q14CM0) | pKd (GRASP, Q7Z6J2) | pKd (GRIP2_3, Q9C0E4) | pKd (GRIP2_7, Q9C0E4) | pKd (HTRA4, P83105) | pKd (Inadl_2, Q8NI35) | pKd (LIN7B, Q9HAP6) | pKd (NHERF3_4, Q5T2W1) | pKd (PDLIM1, O00151) | pKd (PDZD7_3, Q9H5P4) | pKd (SIPA1L2, Q9P2F8) | pKd (SYNJ2BP, P57105) | pKd (TJP2_1, Q9UDY2) | pKd (APBA2_1, Q99767) | pKd (MAGI3_2, Q5TCQ9) | Binder | other results
below the threshold | below the threshold | below the threshold | below the threshold | below the threshold | below the threshold | below the threshold | below the threshold | below the threshold | 4.14 | below the threshold | below the threshold | below the threshold | below the threshold | below the threshold | below the threshold | below the threshold | below the threshold |  |  | KSGKQTMLVV [TRIM29, Q14134;Q14134-2] | 
below the threshold | below the threshold | below the threshold | below the threshold | below the threshold | below the threshold | below the threshold | below the threshold | below the threshold | 4.55 | below the threshold | below the threshold | below the threshold | below the threshold | 3.99 | below the threshold | below the threshold | below the threshold | below the threshold | below the threshold | VYPNAKVELV [PDLIM4_iso2, P50479;P50479-1] | pKd (MAST2, Q6P0Q8): below the threshold; pKd (MPDZ_10, O75970): below the threshold; pKd (SNX27, Q96L92): below the threshold
below the threshold | below the threshold | below the threshold | 4.05 | below the threshold | below the threshold | below the threshold | below the threshold | below the threshold | below the threshold | below the threshold | 3.78 | below the threshold | below the threshold | below the threshold | below the threshold | below the threshold | below the threshold | below the threshold | below the threshold | QKNRKAQEDL [CES3, Q6UWW8] | pKd (MAGI2_4, Q86UL8): below the threshold; pKd (MAST2, Q6P0Q8): below the threshold; pKd (MPDZ_10, O75970): below the threshold; pKd (SNX27, Q96L92): below the threshold
